We go through two molecules from publication doi:10.1101/634907.

For test [1], the target named is recombinant human CLASP2 C-terminal fragment (CLASP2-1213-1515) (human). Put plainly: SEC + other: density gradient centrifugation.
Test [2] addresses T1, CLASP2 (endogenous, HeLa cell extracts) (human (endogenous in HeLa)), O75122.
T1 chain: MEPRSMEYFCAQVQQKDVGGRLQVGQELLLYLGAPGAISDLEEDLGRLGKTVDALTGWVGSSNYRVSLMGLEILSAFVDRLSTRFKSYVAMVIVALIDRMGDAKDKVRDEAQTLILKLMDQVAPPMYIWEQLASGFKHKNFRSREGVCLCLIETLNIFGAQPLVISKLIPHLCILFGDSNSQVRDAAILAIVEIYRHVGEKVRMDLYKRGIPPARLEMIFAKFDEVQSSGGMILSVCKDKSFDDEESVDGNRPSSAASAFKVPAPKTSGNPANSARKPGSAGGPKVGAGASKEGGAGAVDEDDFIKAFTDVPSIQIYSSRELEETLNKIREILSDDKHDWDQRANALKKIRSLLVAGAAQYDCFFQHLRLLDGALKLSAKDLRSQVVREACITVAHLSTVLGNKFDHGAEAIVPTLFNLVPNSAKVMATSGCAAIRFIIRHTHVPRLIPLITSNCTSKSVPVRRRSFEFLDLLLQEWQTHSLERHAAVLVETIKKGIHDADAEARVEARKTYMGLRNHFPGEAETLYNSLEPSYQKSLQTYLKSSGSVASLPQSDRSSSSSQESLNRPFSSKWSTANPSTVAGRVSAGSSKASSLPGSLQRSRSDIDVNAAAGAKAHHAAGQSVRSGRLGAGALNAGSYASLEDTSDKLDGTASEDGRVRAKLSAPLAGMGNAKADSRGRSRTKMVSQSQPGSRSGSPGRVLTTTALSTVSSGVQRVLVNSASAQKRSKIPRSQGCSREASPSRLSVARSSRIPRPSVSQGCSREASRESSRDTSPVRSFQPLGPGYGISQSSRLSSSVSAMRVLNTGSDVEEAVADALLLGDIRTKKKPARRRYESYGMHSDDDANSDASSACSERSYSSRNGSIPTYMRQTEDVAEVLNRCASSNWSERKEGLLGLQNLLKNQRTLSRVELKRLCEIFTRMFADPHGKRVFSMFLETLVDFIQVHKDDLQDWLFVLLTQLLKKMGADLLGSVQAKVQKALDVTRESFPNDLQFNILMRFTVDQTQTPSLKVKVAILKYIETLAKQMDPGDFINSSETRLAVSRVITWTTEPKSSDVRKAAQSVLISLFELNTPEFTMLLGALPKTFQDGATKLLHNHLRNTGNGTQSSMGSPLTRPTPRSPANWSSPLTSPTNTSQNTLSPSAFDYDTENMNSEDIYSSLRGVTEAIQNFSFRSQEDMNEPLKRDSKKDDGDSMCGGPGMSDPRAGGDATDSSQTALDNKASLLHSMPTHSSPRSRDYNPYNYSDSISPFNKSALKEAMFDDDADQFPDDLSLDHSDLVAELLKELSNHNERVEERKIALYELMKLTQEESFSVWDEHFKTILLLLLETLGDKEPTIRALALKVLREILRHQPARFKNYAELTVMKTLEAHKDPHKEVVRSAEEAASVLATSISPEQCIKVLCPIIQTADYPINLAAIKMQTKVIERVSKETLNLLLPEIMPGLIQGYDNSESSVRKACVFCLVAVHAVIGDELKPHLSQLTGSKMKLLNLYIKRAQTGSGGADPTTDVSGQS
Put plainly: SEC + other: density gradient centrifugation. The settings on record: remark: other sources report otherwise.

A word on the stoichiometry N: it is the number of molecules, sites or subunits per partner or assembly. In the case of “recombinant human CLASP2 C-terminal fragment (CLASP2-1213-1515) (domain or fragment)”, in test [1], the stoichiometry N was determined as 2.

B1: CLASP2 (endogenous, HeLa cell extracts), O75122-3 1-1515 (natural protein)
chain: T1 chain
Consider B1, for which, in test [2], the stoichiometry N came out at 2.
